Assay results as given in paper doi:10.1101/689042.

Key:
[1] = target: Sorbitol dehydrogenase SmoS from Sinorhizobium meliloti 1021 (Sinorhizobium meliloti 1021); assay: SEC
[2] = target: Sorbitol dehydrogenase SmoS from Sinorhizobium meliloti 1021 (Sinorhizobium meliloti 1021); assay: crystal structure

Sorbitol dehydrogenase SmoS from Sinorhizobium meliloti 1021 (enzyme)
stoichiometry N [1]: 4 | stoichiometry N [2]: 4
